Reference: patent US20160263148A1 (University of Washington, published 2016)
Positions of bridges follow the written chain, without caps; N, C: chain ends. Non-standard residues stand in square brackets, D forms with d. p(HEMA-co-NHSMA) = copolymer of 2-hydroxyethyl methacrylate and N-hydroxysuccinimidyl ester methacrylate; Hyp = O=C(O)[C@@H]1C[C@@H](O)CN1

T1: Fibrin (pure fibrin clots formed from fibrinogen and thrombin), P02671
T1 chain 1: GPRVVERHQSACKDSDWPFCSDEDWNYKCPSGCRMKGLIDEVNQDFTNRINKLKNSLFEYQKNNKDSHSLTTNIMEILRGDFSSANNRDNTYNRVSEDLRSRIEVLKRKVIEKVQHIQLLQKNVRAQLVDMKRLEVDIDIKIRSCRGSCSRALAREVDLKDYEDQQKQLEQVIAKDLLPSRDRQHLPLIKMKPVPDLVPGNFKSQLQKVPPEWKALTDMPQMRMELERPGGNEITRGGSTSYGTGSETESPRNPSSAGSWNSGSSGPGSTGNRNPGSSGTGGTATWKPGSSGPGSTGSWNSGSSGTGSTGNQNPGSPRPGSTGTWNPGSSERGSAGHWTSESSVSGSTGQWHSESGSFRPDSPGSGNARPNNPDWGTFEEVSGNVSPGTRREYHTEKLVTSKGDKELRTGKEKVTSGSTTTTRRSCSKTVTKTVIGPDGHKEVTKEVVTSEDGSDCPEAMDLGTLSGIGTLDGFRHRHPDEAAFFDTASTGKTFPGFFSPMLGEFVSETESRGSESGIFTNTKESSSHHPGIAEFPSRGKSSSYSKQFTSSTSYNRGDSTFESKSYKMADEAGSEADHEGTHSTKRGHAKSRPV
T1 chain 2: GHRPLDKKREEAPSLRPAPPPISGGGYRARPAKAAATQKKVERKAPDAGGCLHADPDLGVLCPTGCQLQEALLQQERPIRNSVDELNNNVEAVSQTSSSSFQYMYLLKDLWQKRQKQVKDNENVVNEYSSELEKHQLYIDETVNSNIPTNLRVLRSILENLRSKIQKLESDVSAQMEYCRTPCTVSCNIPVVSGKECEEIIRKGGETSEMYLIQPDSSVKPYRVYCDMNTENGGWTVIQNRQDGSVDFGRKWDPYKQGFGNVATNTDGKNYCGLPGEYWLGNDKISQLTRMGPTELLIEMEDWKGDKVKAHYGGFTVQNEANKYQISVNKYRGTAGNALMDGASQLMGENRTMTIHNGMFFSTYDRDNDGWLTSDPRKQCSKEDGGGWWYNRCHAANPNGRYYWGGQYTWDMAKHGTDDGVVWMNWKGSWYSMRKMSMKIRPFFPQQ
T1 chain 3: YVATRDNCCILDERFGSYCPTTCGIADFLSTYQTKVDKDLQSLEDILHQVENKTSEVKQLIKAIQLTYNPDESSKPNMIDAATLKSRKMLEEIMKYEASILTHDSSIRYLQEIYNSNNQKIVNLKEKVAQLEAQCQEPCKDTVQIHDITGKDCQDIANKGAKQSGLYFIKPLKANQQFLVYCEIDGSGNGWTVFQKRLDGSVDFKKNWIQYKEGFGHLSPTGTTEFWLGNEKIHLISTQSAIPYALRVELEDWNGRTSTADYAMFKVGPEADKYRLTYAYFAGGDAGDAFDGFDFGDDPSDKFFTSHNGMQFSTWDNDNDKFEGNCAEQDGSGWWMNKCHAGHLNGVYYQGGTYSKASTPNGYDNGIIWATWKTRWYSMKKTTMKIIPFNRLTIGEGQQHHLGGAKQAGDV

T2: Fibrin (pure fibrin clots formed from fibrinogen and thrombin) (UniProt P02671 36-629; P02675 45-491; P02679 27-437, limits assumed)
T2 sequence (looked up) 1: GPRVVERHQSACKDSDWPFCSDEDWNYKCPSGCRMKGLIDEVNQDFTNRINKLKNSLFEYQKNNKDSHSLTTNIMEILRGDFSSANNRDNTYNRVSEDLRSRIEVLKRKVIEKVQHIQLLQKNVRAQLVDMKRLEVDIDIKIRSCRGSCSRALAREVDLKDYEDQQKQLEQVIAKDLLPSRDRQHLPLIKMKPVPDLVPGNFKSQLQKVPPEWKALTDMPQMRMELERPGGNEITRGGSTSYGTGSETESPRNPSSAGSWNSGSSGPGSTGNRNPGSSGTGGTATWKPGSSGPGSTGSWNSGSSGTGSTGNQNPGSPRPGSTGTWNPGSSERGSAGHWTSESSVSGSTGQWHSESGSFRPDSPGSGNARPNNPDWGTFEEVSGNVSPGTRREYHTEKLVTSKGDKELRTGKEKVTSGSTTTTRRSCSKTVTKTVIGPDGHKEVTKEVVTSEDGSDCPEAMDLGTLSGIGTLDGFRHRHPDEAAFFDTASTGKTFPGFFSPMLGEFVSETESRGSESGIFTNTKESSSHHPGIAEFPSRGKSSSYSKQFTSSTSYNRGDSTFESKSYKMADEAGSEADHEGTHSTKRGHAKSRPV
T2 sequence (looked up) 2: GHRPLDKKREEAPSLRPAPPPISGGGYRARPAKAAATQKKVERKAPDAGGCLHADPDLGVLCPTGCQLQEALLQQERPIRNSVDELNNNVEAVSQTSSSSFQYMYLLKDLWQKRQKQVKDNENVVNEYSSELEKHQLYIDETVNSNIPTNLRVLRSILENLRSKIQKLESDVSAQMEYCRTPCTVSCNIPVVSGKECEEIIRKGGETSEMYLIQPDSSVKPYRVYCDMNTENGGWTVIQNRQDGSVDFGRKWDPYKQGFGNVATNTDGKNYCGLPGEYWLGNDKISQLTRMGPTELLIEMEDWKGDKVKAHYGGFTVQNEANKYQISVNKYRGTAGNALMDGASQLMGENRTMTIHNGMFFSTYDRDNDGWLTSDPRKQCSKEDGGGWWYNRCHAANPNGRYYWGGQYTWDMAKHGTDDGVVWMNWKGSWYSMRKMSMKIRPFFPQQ
T2 sequence (looked up) 3: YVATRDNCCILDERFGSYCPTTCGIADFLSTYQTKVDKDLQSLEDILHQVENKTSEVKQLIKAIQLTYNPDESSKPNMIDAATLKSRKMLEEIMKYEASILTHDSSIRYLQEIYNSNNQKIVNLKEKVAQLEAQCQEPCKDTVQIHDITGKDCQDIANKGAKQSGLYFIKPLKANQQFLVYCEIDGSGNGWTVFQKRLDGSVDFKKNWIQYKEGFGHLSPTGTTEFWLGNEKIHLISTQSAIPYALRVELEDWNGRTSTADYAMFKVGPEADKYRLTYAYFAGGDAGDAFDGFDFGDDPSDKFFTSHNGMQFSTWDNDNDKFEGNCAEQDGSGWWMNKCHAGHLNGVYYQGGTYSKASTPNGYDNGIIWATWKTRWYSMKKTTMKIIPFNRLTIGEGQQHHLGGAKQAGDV


Columns and labels:
[1] = target: T1, Fibrin (pure fibrin clots formed from …)
[2] = target: T2, Fibrin (pure fibrin clots formed from …); assay: cell-based or functional assay

| Binder | pore radius of fibrin clots (permeation study) [1] [nm] | clot strength (MA, TEG) relative to controls [2] [times] |
| --- | --- | --- |
| Human Factor XIIIa (HFXIIIa) (protein) GVNLQEFLNVTSVHLFKERWDTNKVDHHTDKYENNKLIVRRGQSFYVQIDFSRPYDPRRDLFRVEYVIGRYPQENKGTYIPVPIVSELQSGKWGAKIVMREDRSVRLSIQSSPKCIVGKFRMYVAVWTPYGVLRTSRNPETDTYILFNPWCEDDAVYLDNEKEREEYVLNDIGVIFYGEVNDIKTRSWSYGQFEDGILDTCLYVMDRAQMDLSGRGNPIKVSRVGSAMVNAKDDEGVLVGSWDNIYAYGVPPSAWTGSVDILLEYRSSENPVRYGQCWVFAGVFNTFLRCLGIPARIVTNYFSAHDNDANLQMDIFLEEDGNVNSKLTKDSVWNYHCWNEAWMTRPDLPVGFGGWQAVDSTPQENSDGMYRCGPASVQAIKHGHVCFQFDAPFVFAEVNSDLIYITAKKDGTHVVENVDATHIGKLIVTKQIGGDGMMDITDTYKFQEGQEEERLALETALMYGAKKPLNTEGVMKSRSNVDMDFEVENAVLGKDFKLSITFRNNSHNRYTITAYLSANITFYTGVPKAEFKKETFDVTLEPLSFKKEAVLIQAGEYMGQLLEQASLHFFVTARINETRDVLAKQKSTVLTIPEIIIKVRGTQVVGSDMTVTVEFTNPLKETLRNVWVHLDGPGVTRPMKKMFREIRPNSTVQWEEVCRPWVSGHRKLIASMSSDSLRHVYGELDVQIQRRPSM | 286±18 | – |
| Ac-Y[dE]C[Hyp]YGLCYIQGK(p(HEMA-co-NHSMA))-NH2 (other, disulfide 3-8; also: about 16 peptides grafted per polymer backbone) | – | 2.5 |
